This note sets out measurements from patent publication US20190300590A1 (PROTAGONIST THERAPEUTICS, published 2019).

Assay [1] concerns the target T1, Rat IL-23R_huFC (rat, UniProt F1LX96 39-369).
T1 sequence: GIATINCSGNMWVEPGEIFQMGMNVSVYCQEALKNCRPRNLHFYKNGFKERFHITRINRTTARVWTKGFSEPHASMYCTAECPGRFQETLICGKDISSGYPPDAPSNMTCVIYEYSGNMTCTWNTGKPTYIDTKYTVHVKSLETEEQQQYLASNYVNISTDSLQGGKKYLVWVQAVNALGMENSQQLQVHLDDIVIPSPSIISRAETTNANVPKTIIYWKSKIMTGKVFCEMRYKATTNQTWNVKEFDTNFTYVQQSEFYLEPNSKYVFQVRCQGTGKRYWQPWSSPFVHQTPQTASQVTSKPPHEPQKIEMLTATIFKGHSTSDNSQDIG
In words: rat IL-23R competitive binding ELISA.

Assay [2] deals with T2, IL-23R on human cells (IL-23R-expressing DB cells; human NK cells) (human, UniProt Q5VWK5 24-629).
T2 sequence (looked up): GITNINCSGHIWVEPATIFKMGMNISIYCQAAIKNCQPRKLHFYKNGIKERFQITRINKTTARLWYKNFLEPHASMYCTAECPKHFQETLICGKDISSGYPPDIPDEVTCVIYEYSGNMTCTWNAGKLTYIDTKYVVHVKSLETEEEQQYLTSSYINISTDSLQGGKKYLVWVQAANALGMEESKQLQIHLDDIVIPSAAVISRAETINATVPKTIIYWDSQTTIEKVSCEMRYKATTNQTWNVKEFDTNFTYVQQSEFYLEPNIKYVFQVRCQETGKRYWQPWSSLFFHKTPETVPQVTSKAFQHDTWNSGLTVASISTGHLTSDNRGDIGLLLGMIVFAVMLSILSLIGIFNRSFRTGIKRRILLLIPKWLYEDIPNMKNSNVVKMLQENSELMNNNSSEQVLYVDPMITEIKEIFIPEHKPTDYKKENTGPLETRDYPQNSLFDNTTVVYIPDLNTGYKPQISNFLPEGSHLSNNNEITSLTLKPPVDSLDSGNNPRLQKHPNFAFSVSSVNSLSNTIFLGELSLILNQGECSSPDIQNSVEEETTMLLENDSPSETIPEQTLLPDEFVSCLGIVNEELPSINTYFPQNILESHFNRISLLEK
In words: cell-based or functional assay.

For assay [3], the target named is Rat IL-23R_huFC (rat). As to the kind of experiment: rat ELISA vs IL-23.
Assay [4] concerns the target T2, IL-23R on human cells …. In words: cell-based or functional assay. This is another data set of the same source.

Bridges are numbered along the chain shown (N, C = ends). [ ]: non-standard residue; d: D form. 2Nal = N[C@@H](Cc1ccc2ccccc2c1)C(=O)O; AEF = NCCOc1ccc(C[C@H](N)C(=O)O)cc1; αMeL = CC(C)C[C@](C)(N)C(=O)O; hLeu = CC(C)CC[C@H](N)C(=O)O; αMeK = C[C@](N)(CCCCN)C(=O)O; Ac6c = NC1(C(=O)O)CCCCC1; Abu = CC[C@H](N)C(=O)O; βAla = NCCC(=O)O

B1: Ac-CRTWQCYWSEFGTGE-NH2 (peptide)
peptide: Ac-CRTWQCYWSEFGTGE-NH2
modifications: disulfide 1-6
SMILES: CC(=O)N[C@H]1CSSC[C@@H](C(=O)N[C@@H](Cc2ccc(O)cc2)C(=O)N[C@@H](Cc2c[nH]c3ccccc23)C(=O)N[C@@H](CO)C(=O)N[C@@H](CCC(=O)O)C(=O)N[C@@H](Cc2ccccc2)C(=O)NCC(=O)N[C@H](C(=O)NCC(=O)N[C@@H](CCC(=O)O)C(N)=O)[C@@H](C)O)NC(=O)[C@H](CCC(N)=O)NC(=O)[C@H](Cc2c[nH]c3ccccc23)NC(=O)[C@H]([C@@H](C)O)NC(=O)[C@H](CCCNC(=N)N)NC1=O
In the assay with Rat IL-23R_huFC [1], B1 returned an IC50 of 778 nM.

For the molecule Ac-[dF][Abu]QTWQC[AEF][2Nal][αMeK]ENN-NH2 (thioether 2-7) [Ac-[(D)Phe]-Cyclo-[[Abu]-QTWQC]-[Phe[4-(2-aminoethoxy)]]-[2-Nal]-[α-MeLys]-ENN-NH2], in assay [2], the “NK cell assay IC50 (IFNγ)” value is less than 25 nM. Besides, the IC50 with Rat IL-23R_huFC [3] is less than 10 nM.

In the assay with Rat IL-23R_huFC [1], Ac-CRTWQCYWLRLGDEG-NH2 (disulfide 1-6 (inferred)) [Ac-CRTWQCYWLRLGDEG-NH2] yielded an IC50 of 483 nM.

Turning to Ac-[Abu]QTWQC[AEF][2Nal][αMeL]QN[βAla]-NH2 (thioether 1-6) [Ac-Cyclo-[[Abu]-QTWQC]-[Phe[4-(2-aminoethoxy)]]-[2-Nal]-[α-MeLeu]-QN-[βAla]-NH2], the “NK cell assay IC50 (IFNγ)” value in assay [2] was less than 25 nM. The “pStat3 HTRF IC50” value in assay [4] was less than 10 nM.

In turn, Ac-CQTWQCYW[hLeu]EPG-NH2 (not fully specified (bridges); cysteine pairing not given here) [Ac-CQTWQCYW-[hLeu]-EPG-NH2] returned a half-maximal inhibitory concentration (IC50) in the assay with Rat IL-23R_huFC [1] of 140 nM. This counts as sub-micromolar.

Take Ac-CQTWQCYW[hLeu]K(Ac)NG-NH2 (cysteine pairing not given here) [Ac-CQTWQCYW-[hLeu]-[Lys(Ac)]-NG-NH2]: the IC50 with Rat IL-23R_huFC [1] was determined as 32 nM.

On to Ac-CTTWQCYW[hLeu]ENG-NH2 (disulfide 1-6 (inferred)) [Ac-CTTWQCYW-[Leu]-ENG-NH2], for which, in the assay with Rat IL-23R_huFC [1], the IC50 was determined as 28 nM. This IC50 and that of the molecule before are within 1.5-fold of each other.

In the assay with Rat IL-23R_huFC [1], Ac-FCQTWQCYW[hLeu]ENG-NH2 (cysteine pairing not given here) [Ac-FCQTWQCYW-[hLeu]-ENG-NH2] displayed a concentration for half-maximal inhibition (IC50) of 25 nM.

In turn, Ac-LCQTWQCYW[hLeu]ENG-NH2 (cysteine pairing not given here) [Ac-LCQTWQCYW-[hLeu]-ENG-NH2] registered a half-maximal inhibitory concentration (IC50) in the assay with Rat IL-23R_huFC [1] of 26 nM.

For the molecule FXQTWQCFXXENN (as bracketed in name; thioether cyclo), the “NK cell assay IC50 (IFNγ)” value in assay [2] is less than 25 nM.

As to CQTWQCYWXENG (Ac; 3-Pal; NH2) [Ac-CQTWQCYW-[3-Pal]-ENG-NH2], the half-maximal inhibitory concentration (IC50) in the assay with Rat IL-23R_huFC [1] was 20 nM.

The molecule Ac-CQTWQCYW[hLeu]ENE-NH2 (disulfide 1-6 (inferred)) [Ac-CQTWQCYW-[hLeu]-ENE-NH2] had an IC50 in the assay with Rat IL-23R_huFC [1] of 1000 nM.

As to Ac-CQTWQCYW[hLeu]EEG-NH2 (disulfide 1-6 (inferred)) [Ac-CQTWQCYW-[hLeu]-EEG-NH2], in the assay with Rat IL-23R_huFC [1], the IC50 was 53 nM.

Turning to Ac-[Abu]QTWQC[AEF][2Nal][Ac6c]ENN-NH2 (thioether 1-6) [Ac-Cyclo-[[Abu]-QTWQC]-[Phe[4-(2-aminoethoxy)]]-[2-Nal]-[Achc]-ENN-NH2], the “NK cell assay IC50 (IFNγ)” value in assay [2] was less than 25 nM. Also, the “pStat3 HTRF IC50” value in assay [4] is less than 10 nM.

In turn, Ac-CQTWQCYW[hLeu]ENGG-NH2 (cysteine pairing not given here) [Ac-CQTWQCYW-[hLeu]-ENGG-NH2] returned a 50% inhibitory concentration (IC50) with Rat IL-23R_huFC [1] of 140 nM.
